Results published in article PMC10397247.
Blank lines part the entries; values can stand above or below the binder they belong to.

Key:
4H953-bA = target: T1, 4H953-bA; assay: two-hybrid library CCNG1;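 also: natural log of median RNA to DNA barcode read ratio; higher means stronger binding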
T1 chain: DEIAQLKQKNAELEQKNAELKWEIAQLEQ

4H967-bA = target: T2, 4H967-bA; assay: two-hybrid library CCNG1;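 also: natural log of median RNA to DNA barcode read ratio; higher means stronger binding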
T2 chain: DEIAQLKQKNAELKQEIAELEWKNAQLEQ

4H883-bA = target: T3, 4H883-bA; assay: two-hybrid library CCNG1;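 also: natural log of median RNA to DNA barcode read ratio; higher means stronger binding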
T3 chain: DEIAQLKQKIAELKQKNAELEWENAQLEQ

4H72-bA = target: T4, 4H72-bA; assay: two-hybrid library CCNG1;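 also: natural log of median RNA to DNA barcode read ratio; higher means stronger binding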
T4 chain: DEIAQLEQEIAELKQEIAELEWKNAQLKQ

4H717-bA = target: T5, 4H717-bA; assay: two-hybrid library CCNG1;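 also: natural log of median RNA to DNA barcode read ratio; higher means stronger binding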
T5 chain: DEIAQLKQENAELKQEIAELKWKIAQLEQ

4H908-bA = target: T6, 4H908-bA; assay: two-hybrid library CCNG1;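 also: natural log of median RNA to DNA barcode read ratio; higher means stronger binding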
T6 chain: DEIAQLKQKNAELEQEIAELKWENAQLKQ

4H797-bA = target: T7, 4H797-bA; assay: two-hybrid library CCNG1
T7 chain: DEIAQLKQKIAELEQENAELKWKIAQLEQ

4H918-bA = target: T8, 4H918-bA; assay: two-hybrid library CCNG1
T8 chain: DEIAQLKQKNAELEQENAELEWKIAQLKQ

4H754-bA = target: T9, 4H754-bA; assay: two-hybrid library CCNG1
T9 chain: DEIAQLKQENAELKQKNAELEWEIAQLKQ

GCN2_T = assay: two-hybrid library CCmax
4H_GCN4 = assay: two-hybrid library CCmax
4H_APH = target: T10, 4H_APH; assay: two-hybrid library CCmax
T10 chain: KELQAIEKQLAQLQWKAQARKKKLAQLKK

4H452-AA = target: T11, 4H452-AA; assay: two-hybrid library CCmax
T11 chain: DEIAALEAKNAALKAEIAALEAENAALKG

4H_BCR = target: T12, 4H_BCR; assay: two-hybrid library CCmax; conditions: mean of both orientations
T12 chain: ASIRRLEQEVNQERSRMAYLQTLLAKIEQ

4H56-AA = target: T13, 4H56-AA; assay: two-hybrid library CCmax; conditions: mean of both orientations
T13 chain: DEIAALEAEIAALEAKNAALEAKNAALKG

4H63-AA = target: T14, 4H63-AA; assay: two-hybrid library CCmax; conditions: mean of both orientations
T14 chain: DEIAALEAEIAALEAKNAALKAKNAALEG

4H3915-AA = target: T15, 4H3915-AA; assay: two-hybrid library CCmax; conditions: mean of both orientations
T15 chain: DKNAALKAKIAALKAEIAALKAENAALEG

4H446-AA = target: T16, 4H446-AA; assay: two-hybrid library CCmax; conditions: mean of both orientations
T16 chain: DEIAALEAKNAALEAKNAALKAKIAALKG

4H432-AA = target: T17, 4H432-AA; assay: two-hybrid library CCmax; conditions: mean of both orientations
T17 chain: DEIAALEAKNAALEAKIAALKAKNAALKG

4H380-AA = target: T18, 4H380-AA; assay: two-hybrid library CCmax; conditions: mean of both orientations
T18 chain: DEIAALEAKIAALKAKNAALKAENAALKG

4H3777-AA = target: T19, 4H3777-AA; assay: two-hybrid library CCmax
T19 chain: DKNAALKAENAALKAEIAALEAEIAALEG

4H3974-AA = target: T20, 4H3974-AA; assay: two-hybrid library CCmax; conditions: mean of both orientations
T20 chain: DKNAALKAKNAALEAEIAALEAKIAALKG

APC8516-AA = target: T21, APC8516-AA; assay: two-hybrid library CCmax; conditions: mean of both orientations
T21 chain: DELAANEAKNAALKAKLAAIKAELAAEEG

APC8401-AA = target: T22, APC8401-AA; assay: two-hybrid library CCmax
T22 chain: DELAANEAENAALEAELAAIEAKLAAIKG

APC9141-AA = target: T23, APC9141-AA; assay: two-hybrid library CCmax; conditions: mean of both orientations
T23 chain: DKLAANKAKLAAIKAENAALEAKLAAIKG

APC9182-AA = target: T24, APC9182-AA; assay: two-hybrid library CCmax; conditions: mean of both orientations
T24 chain: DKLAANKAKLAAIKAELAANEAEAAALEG

APC9806-AA = target: T25, APC9806-AA; assay: two-hybrid library CCmax; conditions: mean of both orientations
T25 chain: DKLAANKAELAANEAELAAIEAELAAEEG

APC9291-AA = target: T26, APC9291-AA; assay: two-hybrid library CCmax; conditions: mean of both orientations
T26 chain: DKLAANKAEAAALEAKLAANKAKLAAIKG

4H968-bH = target: T27, 4H968-bH; assay: two-hybrid library CCNG1
T27 chain: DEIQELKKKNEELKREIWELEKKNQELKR

4H656-AA = target: T28, 4H656-AA; assay: two-hybrid library CCmax; conditions: mean of both orientations
T28 chain: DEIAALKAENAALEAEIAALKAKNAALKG

4H3939-AA = target: T29, 4H3939-AA; assay: two-hybrid library CCmax
T29 chain: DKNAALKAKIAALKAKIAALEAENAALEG

4H483-AA = target: T30, 4H483-AA; assay: two-hybrid library CCmax; conditions: mean of both orientations
T30 chain: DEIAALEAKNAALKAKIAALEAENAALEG

4H478-AA = target: T31, 4H478-AA; assay: two-hybrid library CCmax; conditions: mean of both orientations
T31 chain: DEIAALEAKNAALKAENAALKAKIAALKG

4H497-AA = target: T32, 4H497-AA; assay: two-hybrid library CCmax; conditions: mean of both orientations
T32 chain: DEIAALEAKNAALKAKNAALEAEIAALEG

4H675-AA = target: T33, 4H675-AA; assay: two-hybrid library CCmax; conditions: mean of both orientations
T33 chain: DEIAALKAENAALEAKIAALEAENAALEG

4H3969-AA = target: T34, 4H3969-AA; assay: two-hybrid library CCmax; conditions: mean of both orientations
T34 chain: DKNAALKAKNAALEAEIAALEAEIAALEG

4H971-AA = target: T35, 4H971-AA; assay: two-hybrid library CCmax; conditions: mean of both orientations
T35 chain: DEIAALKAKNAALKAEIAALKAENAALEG

4H464-AA = target: T36, 4H464-AA; assay: two-hybrid library CCmax; conditions: mean of both orientations
T36 chain: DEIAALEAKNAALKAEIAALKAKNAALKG

4H428-AA = target: T37, 4H428-AA; assay: two-hybrid library CCmax; conditions: mean of both orientations
T37 chain: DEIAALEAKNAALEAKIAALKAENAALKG

APC9319-AA = target: T38, APC9319-AA; assay: two-hybrid library CCmax
T38 chain: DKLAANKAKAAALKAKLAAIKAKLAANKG

4H_GCN4, sequence (chain, as listed by the source): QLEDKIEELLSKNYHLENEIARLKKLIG

interaction score (APC8516-AA): -1.57
interaction score (APC8401-AA): -1.51
interaction score (APC9141-AA): -1.49
interaction score (APC9182-AA): -1.43
interaction score (APC9806-AA): -1.46
interaction score (APC9291-AA): -1.42
B4: APC8401-AA (peptide)
chain: DELAANEAENAALEAELAAIEAKLAAIKG

interaction score (4H656-AA): -0.924
interaction score (4H3939-AA): -1.07
interaction score (4H483-AA): -2.02
interaction score (4H63-AA): 1.57
interaction score (4H478-AA): -1.63
interaction score (4H446-AA): -0.459
interaction score (4H497-AA): -1.92
interaction score (4H675-AA): -1.53
interaction score (4H3969-AA): -0.371
interaction score (4H971-AA): -1.81
interaction score (4H464-AA): -1.97
interaction score (4H428-AA): -1.64
B6: 4H3939-AA (peptide)
chain: DKNAALKAKIAALKAKIAALEAENAALEG

interaction score (APC9319-AA): -1.58
B7: APC9319-AA (peptide)
chain: DKLAANKAKAAALKAKLAAIKAKLAANKG

Second part, the binder before the results:

B1: 4H717-bA (peptide)
chain: DEIAQLKQENAELKQEIAELKWKIAQLEQ
interaction score (4H953-bA): -0.433
interaction score (4H967-bA): -0.574
interaction score (4H883-bA): -1.09
interaction score (4H72-bA): 0.154
interaction score (4H717-bA): 0.924
interaction score (4H908-bA): 0.244
interaction score (4H797-bA): -1.13
interaction score (4H918-bA): -0.185
interaction score (4H754-bA): -0.36

B2: 4H452-AA (peptide)
chain: DEIAALEAKNAALKAEIAALEAENAALKG
interaction score (GCN2_T): -0.726
interaction score (4H_GCN4): -0.935
interaction score (4H_APH): -1.91
interaction score (4H452-AA): -0.395
interaction score (4H_BCR): -1.94
interaction score (4H56-AA): -1.4

B3: 4H3777-AA (peptide)
chain: DKNAALKAENAALKAEIAALEAEIAALEG
interaction score (4H63-AA): -1.54
interaction score (4H3915-AA): -0.495
interaction score (4H446-AA): -0.779
interaction score (4H432-AA): -1.01
interaction score (4H380-AA): -1.42
interaction score (4H3777-AA): -0.62
interaction score (4H3974-AA): -0.511

B5: 4H968-bH (peptide)
chain: DEIQELKKKNEELKREIWELEKKNQELKR
interaction score (4H968-bH): 0.196
